Source: US10308712B2, “Antibodies that bind human cannabinoid 1 (CB1) receptor” (priority 2014, dated 2019)
Numbering of substitutions follows the chain as printed.

B1: PA2LR3-P3F8: CB1 antibody (antibody, V domains shown)
VH: EVQLQQSGAELVRPGSSVKISCKASGYAFSNYWMNWVKQRPGQGLEWIGQIYPGDGDTNYNGNFKGKATLTADKSSSTAYMQLSSLTSEDSAVYFCARSHGNYFPYWGQGTLVTVSA
VL: DIVLTQSPAIMSASLGERVTMTCTASSSVSSSYLHWYQQKPGSSPKLWIYSTSNLASGVPARFSGSGSGTSYSLTISSMEAEDAATYYCQQWSSYPLTFGAGTKLELK
modifications: PA2LR3-P3F8 Heavy Chain Variable Region; PA2LR3-P3F8 Light Chain Variable Region
notes: CB1 antibody
B2: PA2LR3-P5E7: CB1 antibody (antibody, V domains shown)
VH: B1 VH with Y60F, N63K, K67R, T69I, K74I, S77N
VL: DIVLTQSPTTMAASPGEKITITCSASSSISSNYLHWYQQKPGFSPKLLIYRTSTLASGVPARFSGSGSGTSYSLTISSMEAEDAATYYCHQYHRSPHTFGSGTKLEIK
modifications: PA2LR3-P5E7 Heavy Chain Variable region; PA2LR3-P5E7 Light Chain Variable region
notes: CB1 antibody
B3: PA2LR3-P4B1: HC variable SEQ ID NO: 42, LC variable SEQ ID NO: 46; potential agonist IgG (antibody, V domains shown)
VH: B1 VH with Y27F, Y60F, N63K, K67R, T69I, K74I, S77N
VL: B1 VL with D1Q, Q90H, W92Y, S93H, S94R, Y95S
modifications: PA2LR3-P4B1 Heavy chain variable region; PA2LR3-P4B1 Light chain variable region
B4: PA2LR3-P6G7: HC variable SEQ ID NO: 58, LC variable SEQ ID NO: 62; potential agonist IgG (antibody, V domains shown)
VH: B1 VH with Y27F, Y60F, N63K, K67R, T69I, K74I, S77N
VL: B1 VL with Q90H, W92H, S93H, S94R, Y95S, L97P
modifications: PA2LR3-P6G7 Heavy chain variable region; PA2LR3-P6G7 Light chain variable region
B5: PA2LR3-P4B5: CB1 antibody; HC variable SEQ ID NO: 26, LC variable SEQ ID NO: 30 (antibody, V domains shown)
VH: B1 VH with N31Y, N61S, N63R, M81I
VL: B1 VL with T5N, Q90H, W92Y, S93H, S94R, Y95S, L107I
modifications: PA2LR3- P4B5 Heavy chain variable region; PA2LR3- P4B5 Light chain variable region
B6: 36E12B6C2: hybridoma-derived anti-CB1 antibody; HC variable SEQ ID NO: 18, LC variable SEQ ID NO: 22 (antibody, listed as Mus sp., V domains shown)
VH: QVQLQQSGAELVRPGSSVKISCKASGYEFSYYWMNWVKQRPGQGLQWIGQIYPGDGDTNYNGKFKGKATLTADKSSSTAYMHLTSLTSEDSAVYFCARSGGNPFAFWGQGTLVTVSA
VL: DIQMTQTSSSLSASLGDRVTFSCRASQDISNYLNWYQQKPDGTVKLLIYYTSRLHSGVTSRFRGSGSGTDYSLTISNLEQEDVATYFCQQGHTLPWSFGGGTKLEIK
B7: PA2LR3-P4C6: CB1 receptor binding IgG clone (antibody, V domains shown)
VH: B1 VH with N31Y, N63K
VL: B1 VL with L4I, M11V, L107I
modifications: PA2LR3-P4C6 Heavy Chain Variable region; PA2LR3-P4C6 Light Chain Variable region
B8: PA2LR3-P3A8: CB1 antibody (antibody, V domains shown)
VH: B1 VH with N31Y, N63K, F64V, P105A
VL: B1 VL with L4M, Y95N
modifications: PA2LR3-P3A8 Heavy Chain Variable Region; PA2LR3-P3A8 Light Chain Variable Region
notes: CB1 antibody
B9: PA2LR3-P6B12: HC variable SEQ ID NO: 50, LC variable SEQ ID NO: 54; potential allosteric modulator (antibody, V domains shown)
VH: B1 VH with N31Y, N63K, P105A
VL: B1 VL with D1Q, Q90H, W92Y, S93H, S94R, Y95S, T98A
modifications: PA2LR3-P6B12 Heavy chain variable region; PA2LR3-P6B12 Light chain variable region
B10: PA2LR3-P4G10: CB1 receptor binding IgG clone (antibody, V domains shown)
VH: B1 VH with S7F, N31Y, N63K, P105A
VL: B1 VL with Y95N
modifications: PA2LR3-P4G10 Heavy Chain Variable region; PA2LR3-P4G10 Light Chain Variable region

Legend:
[1] = biological target: T1, human CB1 expressing TRex-CHO cells (Homo sapiens, UniProt P21554); type: cell-based
T1 construct: pcDNA4/TO native full length human CB1 receptor construct was transfected into tetracycline inducible system Trex-CHO and Trex-293 cells; expressed in transfected cells
T1 sequence (P21554 whole entry): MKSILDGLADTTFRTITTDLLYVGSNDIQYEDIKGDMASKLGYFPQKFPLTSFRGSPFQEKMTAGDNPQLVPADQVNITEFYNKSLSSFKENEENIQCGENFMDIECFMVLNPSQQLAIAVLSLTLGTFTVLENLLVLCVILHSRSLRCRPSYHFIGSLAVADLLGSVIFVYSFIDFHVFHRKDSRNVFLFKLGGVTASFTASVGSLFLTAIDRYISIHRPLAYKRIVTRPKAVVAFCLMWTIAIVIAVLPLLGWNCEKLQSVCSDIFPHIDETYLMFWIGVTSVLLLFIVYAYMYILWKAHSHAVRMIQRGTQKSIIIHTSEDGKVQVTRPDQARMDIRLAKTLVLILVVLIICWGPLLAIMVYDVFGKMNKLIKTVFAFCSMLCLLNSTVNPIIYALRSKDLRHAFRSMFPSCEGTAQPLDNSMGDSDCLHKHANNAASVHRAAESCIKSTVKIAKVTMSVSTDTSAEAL

CB1 TRex-CHO cells = biological target: T2, CB1 TRex-CHO cells (Homo sapiens, UniProt P21554); type: cell-based; details: antibody 300 nM, 1 hour
T2 construct: pcDNA4/TO native full length human CB1 receptor construct was transfected into tetracycline inducible system Trex-CHO and Trex-293 cells; expressed in transfected cells
T2 sequence (P21554 whole entry): as above

[2] = system: Trex-CHO CB1 receptor cells, WIN55,212 induced ERK phosphorylation; test: ERK activation assay (western blot); details: IgG 300 nM, WIN55,212 100 nM
TRex CHO parental cells = test: Flow cytometry (FACS) binding, parental cells; details: in words
human CB2 = human CB2 (Homo sapiens, UniProt P34972); test: Flow cytometry (FACS) selectivity, human CB2 cells; details: in words
Sequence of human CB2 (P34972 whole entry): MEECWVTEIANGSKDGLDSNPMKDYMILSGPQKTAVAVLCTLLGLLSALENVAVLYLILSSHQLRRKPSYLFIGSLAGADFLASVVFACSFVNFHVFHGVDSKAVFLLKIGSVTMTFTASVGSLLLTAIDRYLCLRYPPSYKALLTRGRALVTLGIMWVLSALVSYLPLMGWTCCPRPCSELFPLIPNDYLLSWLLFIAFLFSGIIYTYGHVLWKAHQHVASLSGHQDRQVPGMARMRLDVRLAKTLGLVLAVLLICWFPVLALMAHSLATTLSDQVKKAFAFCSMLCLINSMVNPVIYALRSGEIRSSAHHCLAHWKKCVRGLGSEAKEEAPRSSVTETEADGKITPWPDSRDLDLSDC

Mouse CB1 = Mouse CB1 (Mus musculus, UniProt P47746); test: Flow cytometry (FACS) cross-reactivity, mouse CB1 cells; details: in words
Sequence of Mouse CB1 (P47746 whole entry): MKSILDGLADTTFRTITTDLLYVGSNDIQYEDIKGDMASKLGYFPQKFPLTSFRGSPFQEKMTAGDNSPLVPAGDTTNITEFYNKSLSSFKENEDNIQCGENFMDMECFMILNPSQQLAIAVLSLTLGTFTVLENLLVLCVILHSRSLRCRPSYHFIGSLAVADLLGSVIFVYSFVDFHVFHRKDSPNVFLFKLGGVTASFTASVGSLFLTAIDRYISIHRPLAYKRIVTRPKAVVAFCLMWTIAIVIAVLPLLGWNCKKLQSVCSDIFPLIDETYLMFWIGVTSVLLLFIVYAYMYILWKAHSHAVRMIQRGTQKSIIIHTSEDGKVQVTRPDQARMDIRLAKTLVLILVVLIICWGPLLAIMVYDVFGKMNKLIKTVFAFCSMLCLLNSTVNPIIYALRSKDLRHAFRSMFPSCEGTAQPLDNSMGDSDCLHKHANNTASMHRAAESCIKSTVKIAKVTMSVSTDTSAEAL

Molecule	induction of CB1 receptor internalization by the substance alone (CB1 TRex-CHO cells)	also measured
Cc1c(C(=O)NN2CCS(=O)(=O)CC2)nn(-c2ccc(Cl)cc2Cl)c1-c1ccc(C#CCCC#N)cc1 [AM6545, reference compound]		effect on cAMP levels ([1]; 1.5 μM or 5 μM forskolin stimulated TRex-CHO CB1 cells, no exogenous agonist): did not affect cAMP levels
B1	do not induce	
B2	do not induce	
B3	do not induce	
B4	do not induce	
B5	do not induce	
B6		mechanism (inverse agonist or neutral antagonist) ([1]; 5 μM forskolin, no agonist (Example 11)): inverse agonists; blocking of WIN55,212 induced ERK phosphorylation [2]: blocked; binding to parental TRex CHO (TRex CHO parental cells): not parental TRex CHO; cross-activity / selectivity human CB2 (human CB2): do not have cross-activity; cross-activity / cross-reactivity Mouse CB1 (Mouse CB1): do not have cross-activity
B7	do not induce	
B8	do not induce	
B9	do not induce	
B10	do not induce	
